Laboratory results published in IntAct's records for PubMed 19395483.

B1: ATP-dependent protease ATPase subunit HslU (Escherichia coli (strain K12)), P0A6H5 (parent)
chain: MSEMTPREIVSELDKHIIGQDNAKRSVAIALRNRWRRMQLNEELRHEVTPKNILMIGPTGVGKTEIARRLAKLANAPFIKVEATKFTEVGYVGKEVDSIIRDLTDAAVKMVRVQAIEKNRYRAEELAEERILDVLIPPAKNNWGQTEQQQEPSAARQAFRKKLREGQLDDKEIEIDLAAAPMGVEIMAPPGMEEMTSQLQSMFQNLGGQKQKARKLKIKDAMKLLIEEEAAKLVNPEELKQDAIDAVEQHGIVFIDEIDKICKRGESSGPDVSREGVQRDLLPLVEGCTVSTKHGMVKTDHILFIASGAFQIAKPSDLIPELQGRLPIRVELQALTTSDFERILTEPNASITVQYKALMATEGVNIEFTDSGIKRIAEAAWQVNESTENIGARRLHTVLERLMEEISYDASDLSGQNITIDADYVSKHLDALVADEDLSRFIL
partner: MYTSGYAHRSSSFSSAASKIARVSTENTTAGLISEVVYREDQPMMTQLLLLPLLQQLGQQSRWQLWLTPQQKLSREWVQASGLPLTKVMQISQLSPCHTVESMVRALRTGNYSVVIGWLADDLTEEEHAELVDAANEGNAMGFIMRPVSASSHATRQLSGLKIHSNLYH

Variants of: B1
Settings: with sula_ecoli sulA

| Variant | effect of a mutation on the interaction |
| --- | --- |
| I186N | disrupting interaction strength |
| V89I | increasing interaction strength |
